# Data taken from patent publication US20180282410A1 (Hoffmann-La Roche, published 2018).
# T1: murine (mu) Robo 4 ECD-PreS-Avi-His (mouse)
# T1 construct: also called recombinant murine Robo 4; murine Robo 4
# T1 chain: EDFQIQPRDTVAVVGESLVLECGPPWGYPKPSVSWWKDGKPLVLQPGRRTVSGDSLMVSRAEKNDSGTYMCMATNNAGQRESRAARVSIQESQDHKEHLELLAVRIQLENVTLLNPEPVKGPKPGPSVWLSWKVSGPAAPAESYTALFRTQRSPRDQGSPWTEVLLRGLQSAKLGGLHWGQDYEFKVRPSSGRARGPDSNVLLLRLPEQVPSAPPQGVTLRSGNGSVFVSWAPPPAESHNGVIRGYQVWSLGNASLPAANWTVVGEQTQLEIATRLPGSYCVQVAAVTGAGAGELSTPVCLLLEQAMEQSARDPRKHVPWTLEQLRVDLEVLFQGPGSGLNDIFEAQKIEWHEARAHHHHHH
# T2: biotinylated ectodomain of human Robo 4 with C-terminal AcTEV protease site, Avi-tag and 6xHis-tag (human, biotin on the Avi-tag (in vivo biotinylated via co-expression of BirA))
# T2 construct: also called biotinylated human Robo 4
# T2 chain: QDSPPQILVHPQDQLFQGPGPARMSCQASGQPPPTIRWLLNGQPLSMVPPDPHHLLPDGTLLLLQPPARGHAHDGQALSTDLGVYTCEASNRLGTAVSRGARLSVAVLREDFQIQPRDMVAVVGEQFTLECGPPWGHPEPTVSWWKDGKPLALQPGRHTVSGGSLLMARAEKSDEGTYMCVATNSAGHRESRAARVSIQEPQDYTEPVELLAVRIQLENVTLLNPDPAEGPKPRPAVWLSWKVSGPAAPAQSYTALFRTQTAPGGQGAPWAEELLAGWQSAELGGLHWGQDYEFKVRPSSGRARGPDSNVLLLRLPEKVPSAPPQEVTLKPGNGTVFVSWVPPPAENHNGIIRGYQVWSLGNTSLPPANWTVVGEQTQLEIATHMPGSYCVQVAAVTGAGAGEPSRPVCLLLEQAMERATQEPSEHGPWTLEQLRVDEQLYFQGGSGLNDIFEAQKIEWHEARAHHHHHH
# T3: recombinant cynomolgus Robo 4 ECD fused to AcTEV protease recognition site, Avi- and 6xHis-tag (cynomolgus)
# T3 construct: Biotinylated in the avidity assay
# T3 chain: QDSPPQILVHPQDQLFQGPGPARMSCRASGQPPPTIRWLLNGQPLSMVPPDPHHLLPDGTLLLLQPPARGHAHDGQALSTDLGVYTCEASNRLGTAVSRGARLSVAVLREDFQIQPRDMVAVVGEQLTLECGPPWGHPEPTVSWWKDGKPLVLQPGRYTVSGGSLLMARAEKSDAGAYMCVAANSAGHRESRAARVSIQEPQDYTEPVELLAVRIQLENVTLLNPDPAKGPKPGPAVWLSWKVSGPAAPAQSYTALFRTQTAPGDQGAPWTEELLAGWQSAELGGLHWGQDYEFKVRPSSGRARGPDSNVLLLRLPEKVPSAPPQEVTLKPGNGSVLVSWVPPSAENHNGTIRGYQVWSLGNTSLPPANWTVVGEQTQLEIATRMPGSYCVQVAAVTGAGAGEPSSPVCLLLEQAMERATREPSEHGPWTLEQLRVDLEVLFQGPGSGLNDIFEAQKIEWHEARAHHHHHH
# B1: 7G2 Fab (phage display clone, bacterially expressed) (Fab, V domains shown)
# VH: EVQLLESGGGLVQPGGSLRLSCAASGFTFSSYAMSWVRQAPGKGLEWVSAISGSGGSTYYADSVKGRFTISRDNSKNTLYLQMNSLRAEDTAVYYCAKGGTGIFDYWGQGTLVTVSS
# VL: EIVLTQSPGTLSLSPGERATLSCRASQSVSSSYLAWYQQKPGQAPRLLIYGASSRATGIPDRFSGSGSGTDFTLTISRLEPEDFAVYYCQQGQLPPRTFGQGTKVEIK
# notes: also called clone 7G2
# Columns and labels:
# [1] = target: T1, murine (mu) Robo 4 ECD-PreS-Avi-His; test: SPR, BioRad ProteOn XPR36, purified Fab
# [2] = target: T2, biotinylated ectodomain of human Robo 4 …; test: SPR, BioRad ProteOn XPR36, purified Fab, monovalent affinity; human Robo 4; Fab, monovalent affinity
# [3] = target: T3, recombinant cynomolgus Robo 4 ECD fused …; test: SPR, BioRad ProteOn XPR36, purified Fab, monovalent affinity; cynomolgus Robo 4; Fab, monovalent affinity
binder,measurement,setting,value
B1,binding result,[1],no binding
same,Kd,[2],14.9 nM
same,Kd,[3],20.5 nM
